{
  "source": "patent US20260263614A1",
  "about": "“ANTIBODY DRUG CONJUGATES THAT BIND CDCP1 AND USES THEREOF” (Pheon Therapeutics Ltd, priority 2022, published 2026)",
  "key": {"[1]": {"assay": "Comparative repeat-dose rat toxicity study", "format": "in vivo", "conditions": "DAR 8 on a Trastuzumab backbone, 20 or 60 mg/kg"}, "[2]": {"assay": "Control incubation in buffer without S9", "conditions": "5 μM ADC, pH 5.0", "procedure": "Samples were analysed using LC/QE-orbitrap-MS.\nThe control incubations include each ADC without the addition of S9."}, "[3]": {"molecular_target": "T1, Papain (a Cathepsin B surrogate) (Carica papaya, UniProt P00784)", "T1 sequence (P00784 134-345)": "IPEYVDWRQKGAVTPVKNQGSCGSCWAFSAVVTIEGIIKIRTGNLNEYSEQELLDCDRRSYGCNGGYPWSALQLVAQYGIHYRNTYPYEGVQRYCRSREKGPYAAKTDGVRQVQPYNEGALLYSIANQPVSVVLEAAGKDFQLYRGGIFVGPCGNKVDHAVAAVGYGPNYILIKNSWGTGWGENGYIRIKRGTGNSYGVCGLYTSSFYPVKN", "conditions": "reaction with papain, 24 hours and 96 hours"}, "[4]": {"conditions": "comparison value of another MMAE ADC; cited from earlier work"}, "[5]": {"molecular_target": "T2, huCDCP1(F30-T667 Q525)-8×His_T3 (human, UniProt Q9H5V8 30-667)", "T2 construct": "The construct name gives the limits F30-T667 and Q525; also called recombinant CDCP1 ECD; CDCP1 ECD", "assay": "SPR, recombinant CDCP1 ECD"}, "[6]": {"molecular_target": "T2, huCDCP1(F30-T667 Q525)-8×His_T3", "assay": "SPR, huCDCP1(F30-T667 Q525)-8×His_T3 as analyte; mAb lot T12"}, "[7]": {"molecular_target": "T3, CDCP1 on antigen-positive cells (A427; CDCP1+ cells MDA-MB-468, PC3, DU145) (Homo sapiens (Human), UniProt Q9H5V8 30-836, On the FIG. 45 cell lines, part of the CDCP1 is proteolytically cleaved in the extracellular domain; the cleavage site is not stated. The uncleaved mature protein is given.)", "T3 construct": "also called the antigen; antigen positive cell-line (A427)", "assay": "binding to CDCP1+ cells (cell line not given), % Maximum against log concentration, fitted curve"}, "[8]": {"test_system": "MDA-MB-468, PC3, DU145 and OVMZ-6 cells", "assay": "Binding to cells after CDCP1 cleavage", "conditions": "mAbs binding membrane proximal or distal regions of CDCP1", "source_text": "FIG. 45E is an image of polyacrylamide gel binding assay. […] The sequences of the light chain variable region, heavy chain variable region, and CDRs (SEQ ID NOs: 15-22) of “Sequence 2” can be found in Table 2B."}},
  "data": [
    {"molecule": "CC[C@@]1(O)C(=O)OCc2c1cc1n(c2=O)Cc2c-1nc1cc(F)c(C)c3c1c2[C@@H](NC(=O)[C@H](C)NC(=O)[C@@H](NC(=O)CCOCCOCCOCCOCCOCCOCCOCCOCCNC(=O)CCN1C(=O)C=CC1=O)C(C)C)CC3", "note": "[Compound 30]", "values": [
      {"measurement": "changes in hemopoietic system (red cell parameters)", "setting": "[1]", "value": "negligible effects"},
      {"measurement": "tolerability", "setting": "[1]; IV once every 3 weeks, two doses", "value": "well tolerated"},
      {"measurement": "LC/MS peak area of released payload (Exatecan; 4NH2-Exatecan; DXd; DM1, per ADC)", "setting": "[2]; Buffer without S9, 180 min", "value": "26,179"},
      {"measurement": "LC/MS peak area of released payload (Exatecan; 4NH2-Exatecan; DXd; DM1, per ADC)", "setting": "[2]; Buffer without S9, 360 min", "value": "51,267"},
      {"measurement": "LC/MS peak area of released payload (Exatecan; 4NH2-Exatecan; DXd; DM1, per ADC)", "setting": "[2]; Buffer without S9, 1440 min", "value": "59,452"},
      {"measurement": "rate of cleavage", "setting": "[3]", "value": "slower rate compared to other TOPO1 inhibitors having Cathepsin B cleavage mechanisms"}
    ]},
    {"molecule": "Adcetris", "values": [
      {"measurement": "ADC cyno t1/2", "setting": "[4]", "value": "45 to 72", "unit": "h"}
    ]},
    {"molecule": "CDCP1 mAb (unconjugated IgG1 antibody targeted to CDCP1, Sequence 1) (antibody, V domains shown, IgG1; also called unconjugated CDCP1-mAb; unconjugated CDCP1 mAb) VH: EVQLLESGGGLVQPGGSLRLSCAASGFTFSNYAMNWVRQAPGKGLEWVSAISGGGGSTYYADSVKGRFTISRDNSKNTLYLQMNSLRAEDTAVYYCAKESITMVRGVMDYYGMDVWGQGTTVTVSS VL: DIQLTQSPSFLSASVGDRVTITCRASQGISSYLAWYQQKPGKAPKLLIYAASTLQGGVPSRFSGSGSGTEFTLTISSLQPEDFATYYCQHLNRFPRTFGQGTKVEIK", "values": [
      {"measurement": "Kd", "setting": "[5]", "value": "~1", "unit": "nM"},
      {"measurement": "Kd", "setting": "[6]", "value": 0.8, "unit": "nM"},
      {"measurement": "koff", "setting": "[6]", "value": 0.000468, "unit": "s⁻¹"},
      {"measurement": "kon", "setting": "[6]", "value": 584000, "unit": "M⁻¹ s⁻¹"},
      {"measurement": "EC50", "setting": "[7]", "value": 0.207, "unit": "µg/mL"}
    ]},
    {"molecule": "mAbs-CDCPA1 Sequence 1: \"mAbs-CDCPA1 Sequence 1 (proximal region)\" antibody binding the membrane proximal region of CDCP1 (antibody, V domains shown) VH: EVQLLESGGGLVQPGGSLRLSCAASGFTFSNYAMNWVRQAPGKGLEWVSAISGGGGSTYYADSVKGRFTISRDNSKNTLYLQMNSLRAEDTAVYYCAKESITMVRGVMDYYGMDVWGQGTTVTVSS VL: DIQLTQSPSFLSASVGDRVTITCRASQGISSYLAWYQQKPGKAPKLLIYAASTLQGGVPSRFSGSGSGTEFTLTISSLQPEDFATYYCQHLNRFPRTFGQGTKVEIK", "values": [
      {"measurement": "binding to cells with cleaved CDCP1", "setting": "[8]", "value": "did not show significant difference in binding to CDCP1+ cells"}
    ]}
  ]
}
